# According to patent US11428689B2, “Methods and uses for remotely triggered protease activity measurements” (Massachusetts Institute of Technology, priority 2016, dated 2022):
# Where no end group is shown, it is not given here. [ ]: non-standard residue; d: D form. FAM = fluorescein
# Legend:
# MMP13 = molecular target: T1, MMP13 (Homo sapiens, UniProt P45452); assay: In vitro recombinant protease assay (fluorescence dequenching of NP-bound substrate); assay type: biochemical; conditions: for cleavage of substrate by MMP13: unmodified substrate on particle
# T1 construct: purchased Enzo Life Sciences
# Procedure: (§1) C1-NP complexes sensitive to MMP cleavage were mixed with 1% (wt/vol) BSA (Sigma) and incubated with recombinant proteases (MMPs and ADAMs: Enzo Life Sciences; Clotting proteases: Haematologic Technologies) in a final volume of 100 μL in enzyme-specific buffers (MMP buffer: 50 mM Tris, 150 mM NaCl, 5 mM CaCl2, 1 μM ZnCl2, pH 7.5; Clotting proteases: PBS) in a 384-well plate for time-lapse fluorimetry to measure dequenching from homoquenched peptides at 37° C. (SpectroMax Gemini EM Microplate Reader). For the metalloproteinase, enzymes were diluted 1:10 in enzyme specific buffer, and for clotting proteases, enzymes were diluted 1:100. Cleavage heatmap was generated using GENE-E (Broad Institute). Michaelis-Menten constants were determined by assessing initial cleavage velocities at different substrate concentrations. The MMP inhibitor Marimatstat (Tocris) was added to the mixture at 100 μM final concentration. To identify the cleavage position by MMP9, C1-NPs were incubated with MMP9 overnight, and the N-terminal cleavage fragment was isolated and analyzed by MALDI. The sequence corresponding to the dominant peak was identified, and the final amino acid was in that sequence represents the P1 position (toward the N-terminal end from scissile bond). For protease resistance assays, various DMNPE: peptide ratios were reacted overnight and purified prior to being added to proteases.
# (§2) Light activation of peptides for biochemical studies was performed using a CL-1000 UV Cross-linker (UVP, 8 mW/cm^2). Power density was measured by an OAI 306 UV power meter at 365 nm. Typical exposure time for these studies was 10-30 min. For activation in cell and animal studies, Lumen Dynamics UV system with 365 nm fiber light guide was used (OmniCure 1000, 200 mW/cm^2). For in vivo activation at the tumor site, mice were anesthetized, and the light was guided through an optical cable and placed approximately 3 cm from the flank tumor. Each flank tumor was exposed for 30 s.
# MMP1 = molecular target: T2, MMP1 (Homo sapiens, UniProt P03956); assay: as above; assay type: biochemical; conditions: unmodified substrate on particle
# T2 construct: purchased Enzo Life Sciences
# T2 sequence (P03956 100-469): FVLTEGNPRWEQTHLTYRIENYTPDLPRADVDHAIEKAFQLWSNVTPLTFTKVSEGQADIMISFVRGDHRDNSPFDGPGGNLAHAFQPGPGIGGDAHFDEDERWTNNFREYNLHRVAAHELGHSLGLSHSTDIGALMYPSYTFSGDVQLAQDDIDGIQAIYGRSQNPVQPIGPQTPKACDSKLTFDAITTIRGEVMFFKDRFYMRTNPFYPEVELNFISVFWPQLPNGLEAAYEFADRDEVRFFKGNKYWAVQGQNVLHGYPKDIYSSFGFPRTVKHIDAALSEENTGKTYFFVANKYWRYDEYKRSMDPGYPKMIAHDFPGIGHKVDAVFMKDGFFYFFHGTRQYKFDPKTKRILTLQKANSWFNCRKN
# Procedure: as §1
# MMP14 = molecular target: T3, MMP14 (Homo sapiens, UniProt P50281); assay: as above; assay type: biochemical; conditions: unmodified substrate on particle
# T3 construct: purchased Enzo Life Sciences
# Procedure: as §1
# MMP7 = molecular target: T4, MMP7 (Homo sapiens, UniProt P09237); assay: as above; assay type: biochemical; conditions: unmodified substrate on particle
# T4 construct: purchased Enzo Life Sciences
# T4 sequence (P09237 95-267): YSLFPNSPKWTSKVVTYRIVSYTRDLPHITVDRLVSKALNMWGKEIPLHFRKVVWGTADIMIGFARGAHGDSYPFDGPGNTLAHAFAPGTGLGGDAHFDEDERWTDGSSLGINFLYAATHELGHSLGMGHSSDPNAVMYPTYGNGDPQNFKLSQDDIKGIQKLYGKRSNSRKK
# Procedure: as §1
# [1] = NP stability in physiological solution (lack of fluorescent dequenching); assay type: in vitro ADME; conditions: physiological solution (human control serum, FIG. 7C), 37° C., 24 h
# Procedure: Next, whether STREAMs could provide both spatial and temporal control of MMP activity measurements was tested. First, whether the veiled NPs would block protease cleavage until activation by light was evaluated. Due to homoquenching of the fluorescent substrates once assembled on the NPs, protease activity can be monitored by measuring increases in sample fluorescence that occurs from peptide proteolysis (FIG. 7B). NPs were stable in physiological solution at 37° C. over 24 h, as confirmed by a lack of fluorescent dequenching (FIG. 7C).
# LS174T cells [2] = assay: Secreted protease activity assay, conditioned media; assay type: cell-based, human; conditions: conditioned media from LS174T cells
# Procedure: (§3) LS174T and CCD-18Co (ATCC CRL-1459) cells were cultured in Eagle's Minimal Essential Medium (ATCC) supplemented with 10% FBS (Gibco) and 1% penicillin-streptomycin (CellGro). Cells were passaged when confluence reached 80%. To isolate secreted proteases, after cells were plated, cells were washed and replaced in serum-free media. Conditioned media was collected 24 h later and exposed to C1-NPs to measure fluorescence dequenching.
# CCD-18Co cell line = assay: as above; assay type: cell-based; conditions: conditioned media from CCD-18Co cells
# Procedure: as §3
# LS174T cells [3] = assay: 3D collagen cancer tissue model, peptide fluorescence in supernatant; assay type: cell-based, human
# Procedure: Next, the activation of the nanosensors in a 3D ECM environment was probed. Forty LS174T cells were embedded in collagen I together with veiled or unmodified nanosensors (FIG. 4A). The constructs were monitored for protease activity by collecting the supernatant and measuring liberated peptide fragments under different conditions: L-amino acid peptide substrates were compared to D-amino acid counterparts to measure nonspecific background, and the role of DMPNE veiling was measured.
# In order to correlate regions of light-activation with protease activity measurements, light-activated rhodamine dye was included to visualize regions exposed to light (FIG. 12A). To explore the ability to monitor protease activity with spatial and temporal control, only the left half of the gels was illuminated.
# LS174T cells were encapsulated in 2.5 mg/mL collagen hydrogels (rat tail collagen type I, Corning). Imaging was done on Nikon Eclipse Ti Inverted Microscopes and Zeiss Stereoscope Discovery v20. When protease activity was measured, surrounding media was serum-free.
# MMP9 = MMP9 (Homo sapiens, UniProt P14780); assay: In vitro recombinant protease assay (fluorescence dequenching of NP-bound substrate); assay type: biochemical; parameters: purchased Enzo Life Sciences
# Procedure: as §1, §2
# Chain of MMP9 (P14780 94-707, species assumed): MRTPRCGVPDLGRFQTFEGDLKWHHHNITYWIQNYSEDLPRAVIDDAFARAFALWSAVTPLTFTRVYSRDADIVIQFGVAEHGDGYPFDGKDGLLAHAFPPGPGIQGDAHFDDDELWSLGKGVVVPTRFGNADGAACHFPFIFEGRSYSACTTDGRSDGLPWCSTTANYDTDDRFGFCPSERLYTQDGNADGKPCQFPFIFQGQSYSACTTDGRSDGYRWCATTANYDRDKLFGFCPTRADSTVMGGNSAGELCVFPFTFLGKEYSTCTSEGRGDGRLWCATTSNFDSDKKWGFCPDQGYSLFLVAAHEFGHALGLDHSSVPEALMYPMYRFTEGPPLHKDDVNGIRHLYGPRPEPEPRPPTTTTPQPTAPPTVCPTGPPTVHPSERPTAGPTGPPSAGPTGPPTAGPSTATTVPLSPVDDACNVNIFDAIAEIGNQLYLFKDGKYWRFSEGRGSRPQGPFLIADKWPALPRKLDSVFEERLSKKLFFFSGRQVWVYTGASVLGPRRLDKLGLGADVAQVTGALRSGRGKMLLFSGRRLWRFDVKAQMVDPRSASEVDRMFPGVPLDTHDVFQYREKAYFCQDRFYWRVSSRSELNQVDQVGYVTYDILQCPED
substance,measurement,setting,value
C1-NPs: Iron oxide NPs functionalized with fluorescein-conjugated peptide substrate C1 at surface valency >20; in vitro protease sensor ({FAM}-[dS][dK]PLGLEEAGC(iron oxide nanoparticle); not fully specified; printed as FAM-sk-PLGLEEA-GC; also: C-terminal Cys coupled to iron oxide nanoparticle),catalytic efficiency,"MMP13; MMP13, Michaelis-Menten fit",> 10^4 M^−1 s^−1
same,cleavage of substrate by MMP13,MMP13,most efficient
same,cleavage of substrate by MMP13,MMP13; listed as C1-NP,significantly cleaved
same,cleavage of substrate by MMP1,MMP1,significantly cleaved
same,cleavage of substrate by MMP14,MMP14,able to cleave the substrate
same,cleavage of substrate by MMP7,MMP7,significantly cleaved
same,stability (lack of fluorescent dequenching),[1],stable
same,cleavage by cell-secreted proteases,LS174T cells [2],peptide cleavage and a dose-dependent increase in fluorescence
same,cleavage by cell-secreted proteases,CCD-18Co cell line,significantly lower compared to LS174T cells
same,liberated peptide fluorescence in supernatant,"LS174T cells [3]; first day, no light",significantly more fluorescent peptides than those with D-amino acid NPs
same,peptide fluorescence in supernatant after light exposure,"LS174T cells [3]; left half of gels illuminated, 24 h, 30 s at 200 mW/cm^2",did not exhibit significant changes in peptide fluorescence
same,catalytic efficiency,"MMP9; MMP9, Michaelis-Menten fit",> 10^3 M^−1 s^−1
same,cleavage of substrate by MMP9,MMP9; unmodified substrate on particle,significantly cleaved
